Patent US20240091318A1, “COMBINATION THERAPY COMPRISING LONG ACTING GLP-1/GLUCAGON AND NPY2 RECEPTOR AGONISTS” (Boehringer Ingelheim International GmbH, priority 2022, published 2024)
Numbered stars: 1 amine (or outer) side, 2 acyl side, 3 side chain; on linkers, the order of the positions; unused ones are H or OH. Side chains are listed from the residue outwards. * marks the point of attachment. C18 diacid = O=C(O)CCCCCCCCCCCCCCCCC(=O)*; γGlu = O=C(O)[C@H](CCC(=O)[*:2])N[*:1]; Isovaleryl = CC(C)CC(=O)*; AEEA = NCCOCCOCC(=O)O; Ahx = NCCCCCC(=O)O

B1: Reference 2 (peptide)
peptide: APEKPGEDASPEELQRYYVSLRHYYHWLTRQRY
modifications: not fully specified; N-terminal iVal (3-methylbutanoyl); the Lys (4th residue) carries C18DA-gGlu-OEG-OEG; C-terminal amide (-NH2)
B2: Compound C (peptide)
peptide: Isovaleryl-APAK([AEEA-AEEA-γGlu-C18 diacid])PEEEASPEELQRYYVSLRHYYNWLTRQRY-NH2
SMILES: CC(C)CC(=O)N[C@@H](C)C(=O)N1CCC[C@H]1C(=O)N[C@@H](C)C(=O)N[C@@H](CCCCNC(=O)COCCOCCNC(=O)COCCOCCNC(=O)CC[C@H](NC(=O)CCCCCCCCCCCCCCCCC(=O)O)C(=O)O)C(=O)N1CCC[C@H]1C(=O)N[C@@H](CCC(=O)O)C(=O)N[C@@H](CCC(=O)O)C(=O)N[C@@H](CCC(=O)O)C(=O)N[C@@H](C)C(=O)N[C@@H](CO)C(=O)N1CCC[C@H]1C(=O)N[C@@H](CCC(=O)O)C(=O)N[C@@H](CCC(=O)O)C(=O)N[C@@H](CC(C)C)C(=O)N[C@@H](CCC(N)=O)C(=O)N[C@@H](CCCNC(=N)N)C(=O)N[C@@H](Cc1ccc(O)cc1)C(=O)N[C@@H](Cc1ccc(O)cc1)C(=O)N[C@H](C(=O)N[C@@H](CO)C(=O)N[C@@H](CC(C)C)C(=O)N[C@@H](CCCNC(=N)N)C(=O)N[C@@H](Cc1c[nH]cn1)C(=O)N[C@@H](Cc1ccc(O)cc1)C(=O)N[C@@H](Cc1ccc(O)cc1)C(=O)N[C@@H](CC(N)=O)C(=O)N[C@@H](Cc1c[nH]c2ccccc12)C(=O)N[C@@H](CC(C)C)C(=O)N[C@H](C(=O)N[C@@H](CCCNC(=N)N)C(=O)N[C@@H](CCC(N)=O)C(=O)N[C@@H](CCCNC(=N)N)C(=O)N[C@@H](Cc1ccc(O)cc1)C(N)=O)[C@@H](C)O)C(C)C
B3: Reference 3 (peptide)
peptide: Isovaleryl-RPEKPEEDASPEELQRYYVSLRHYYNWLTRQRY-NH2
modifications: not fully specified (residue 4); printed as iVal-RPEK(C18DA-gGlu-OEG-OEG)PEEDASPEELQRYYVSLRHYYNWLTRQRY-NH2
B4: Compound F (peptide)
peptide: Isovaleryl-APEK([AEEA-AEEA-γGlu-C18 diacid])PEADATPEELQRYYVSLRHYYNWLTRQRY-NH2
SMILES: CC(C)CC(=O)N[C@@H](C)C(=O)N1CCC[C@H]1C(=O)N[C@@H](CCC(=O)O)C(=O)N[C@@H](CCCCNC(=O)COCCOCCNC(=O)COCCOCCNC(=O)CC[C@H](NC(=O)CCCCCCCCCCCCCCCCC(=O)O)C(=O)O)C(=O)N1CCC[C@H]1C(=O)N[C@@H](CCC(=O)O)C(=O)N[C@@H](C)C(=O)N[C@@H](CC(=O)O)C(=O)N[C@@H](C)C(=O)N[C@H](C(=O)N1CCC[C@H]1C(=O)N[C@@H](CCC(=O)O)C(=O)N[C@@H](CCC(=O)O)C(=O)N[C@@H](CC(C)C)C(=O)N[C@@H](CCC(N)=O)C(=O)N[C@@H](CCCNC(=N)N)C(=O)N[C@@H](Cc1ccc(O)cc1)C(=O)N[C@@H](Cc1ccc(O)cc1)C(=O)N[C@H](C(=O)N[C@@H](CO)C(=O)N[C@@H](CC(C)C)C(=O)N[C@@H](CCCNC(=N)N)C(=O)N[C@@H](Cc1c[nH]cn1)C(=O)N[C@@H](Cc1ccc(O)cc1)C(=O)N[C@@H](Cc1ccc(O)cc1)C(=O)N[C@@H](CC(N)=O)C(=O)N[C@@H](Cc1c[nH]c2ccccc12)C(=O)N[C@@H](CC(C)C)C(=O)N[C@H](C(=O)N[C@@H](CCCNC(=N)N)C(=O)N[C@@H](CCC(N)=O)C(=O)N[C@@H](CCCNC(=N)N)C(=O)N[C@@H](Cc1ccc(O)cc1)C(N)=O)[C@@H](C)O)C(C)C)[C@@H](C)O
B5: Reference 1 (peptide)
peptide: Isovaleryl-APEKPEEDASPEEIQQYYVSLRHYYNWLTRQRY-NH2
modifications: not fully specified (residue 4); printed as iVal-APEK(C18DA-gGlu-OEG-OEG)PEEDASPEEIQQYYVSLRHYYNWLTRQRY-NH2

Tested on: not listed separately
Test: Effect on body weight loss and food intake in wildtype Diet Induced Obesity (DIO) mice
Type: in vivo
Conditions: 30 nmol/kg s.c. once daily, 5 day
Description: Effect on Body Weight Loss in Wildtype Diet Induced Obesity Mice
Male C57BL6/J pre-fed on 60% high fat diet were obtained from The Jackson Laboratories at >16 weeks of age. Upon arrival of the Diet Induced Obesity (DIO) mice, the mice where single housed to obtain accurate and individual food intake measurements of each animal and assigned an animal number. […] During the entire study animals had ad libitum access to food and water.
Before start of treatment a stratified randomization was performed based on the body weight measured in week −1 prior study start. At study start the age of mice was around 20 weeks. Bodyweight and food intake were measured daily before compound administration. Animals were dosed around one hour before start of the night phase by subcutaneous injection of 30 nmol/kg once daily for 5 till 28 days depending on the experiment. Control animals were dosed by subcutaneous injection daily with vehicle.
In the case of `CC[C@H](C)[C@H](NC(=O)[C@H](CCC(=O)O)NC(=O)[C@H](CCC(=O)O)NC(=O)[C@@H]1CCCN1C(=O)[C@@H](NC(=O)[C@H](C)NC(=O)[C@H](CC(=O)O)NC(=O)[C@H](CCC(=O)O)NC(=O)[C@H](CCC(=O)O)NC(=O)[C@@H]1CCCN1C(=O)[C@H](CCCCNC(=O)COCCOCCNC(=O)COCCOCCNC(=O)CC[C@H](NC(=O)CCCCCCCCCCCCCCCCC(=O)O)C(=O)O)NC(=O)[C@H](CCC(=O)O)NC(=O)[C@@H]1CCCN1C(=O)[C@H](C)NC(=O)CC(C)C)[C@@H](C)O)C(=O)N[C@@H](CCC(N)=O)C(=O)N[C@@H](CCCNC(=N)N)C(=O)N[C@@H](Cc1ccc(O)cc1)C(=O)N[C@@H](Cc1ccc(O)cc1)C(=O)N[C@H](C(=O)N[C@@H](CO)C(=O)N[C@@H](CC(C)C)C(=O)N[C@@H](CCCNC(=N)N)C(=O)N[C@@H](Cc1c[nH]cn1)C(=O)N[C@@H](Cc1ccc(O)cc1)C(=O)N[C@@H](Cc1ccc(O)cc1)C(=O)N[C@@H](CC(N)=O)C(=O)N[C@@H](Cc1c[nH]c2ccccc12)C(=O)N[C@@H](CC(C)C)C(=O)N[C@H](C(=O)N[C@@H](CCCNC(=N)N)C(=O)N[C@@H](CCC(N)=O)C(=O)N[C@@H](CCCNC(=N)N)C(=O)N[C@@H](Cc1ccc(O)cc1)C(N)=O)[C@@H](C)O)C(C)C` [Compound G, N{alpha-4}-(3-methylbutanoyl)-N{epsilon-7}-[2-(2-{2-[2-(2-{2-[(4S)-4-carboxy-4-(17-carboxyheptadecanamido)butanamido]ethoxy}ethoxy)acetamido]ethoxy}ethoxy)acetamido]-[4A,7K,9E,13T,17I,18Q,22V,28Y,30W,31L]hPYY(4-36)], the “BW 30 nmol/kg 5 day (body weight loss vs. vehicle group)” value is reported as 10.6%.

Target: T1, human NPY2 receptor (human, UniProt P49146)
T1 sequence: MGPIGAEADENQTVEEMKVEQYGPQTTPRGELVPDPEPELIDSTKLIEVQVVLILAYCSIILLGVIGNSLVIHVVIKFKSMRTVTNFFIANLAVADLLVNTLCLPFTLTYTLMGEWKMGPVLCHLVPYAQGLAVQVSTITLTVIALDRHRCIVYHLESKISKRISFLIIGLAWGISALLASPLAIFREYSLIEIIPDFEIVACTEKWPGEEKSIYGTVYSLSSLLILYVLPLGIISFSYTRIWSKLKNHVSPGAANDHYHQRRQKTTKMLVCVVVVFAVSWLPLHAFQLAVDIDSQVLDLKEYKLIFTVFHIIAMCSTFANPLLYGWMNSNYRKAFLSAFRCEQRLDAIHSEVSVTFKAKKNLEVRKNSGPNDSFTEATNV
Test: radioligand binding competition (125I-PYY(1-36)) on human NPY2R membranes, filtration
Conditions: not given
Procedure: The filtration RLB assay was carried out in 96-well plates in a final volume of 100 μl per well. Freeze-dried test peptides were dissolved in 100% dimethyl sulfoxide (DMSO) to stock solutions of 1 mM and serial dilutions were performed in assay buffer (50 mM HEPES, 5 mM MgCl₂, 1 mM CaCl₂, pH 7.4) containing 0.2% ovalbumin. […] Subsequently, 10 μl of human ¹²⁵I-PYY(1-36) (Perkin Elmer) in assay buffer containing 0.2% ovalbumin was added to wells to give a final concentration of 0.02 nM. Next, 80 μL membranes (HTS066M, ChemiSCREEN™ Human Neuropeptide Y2 Receptor Membrane Preparation, CHEMICON) were added to each well to give a final protein concentration of 0.5 μg/well. The plates were sealed and incubated at room temperature for 2 hours in a plate shaker set at 400 rpm. The incubation was stopped by vacuum filtration onto 0.5% poly-ethylene amine (PEI) presoaked GF/C filters using a 96-well FilterMate™ harvester (Perkin Elmer) followed by four washes with 300 μl/well ice-cold wash buffer (50 mM HEPES, 500 mM NaCl, pH7.4). Filter plates were then dried for 60 min at room temperature and the bottom of the plates was sealed with backing tape UniFilter-96. Finally, 50 μl/well scintillation counter cocktail (Microscint20, Packard) was added, and the radioactivity was counted in the Packard TopCount NXT scintillation counter. IC₅₀ values (the half maximal inhibitory concentration of the agonist) were calculated by nonlinear regression analysis of sigmoidal dose-response curves.
Isovaleryl-APEK([AEEA-AEEA-γGlu-C18 diacid])PEEDATPEELQKYYVSLRHYYNWLTRQRY-NH2 [Compound H] showed a Ki of 1.96 nM.
B1 gave a Ki of 0.4 nM.
For Isovaleryl-APAK([AEEA-AEEA-γGlu-C18 diacid])PEEDATPEELQRYYVSLRHYYNWLTRQRY-NH2 [Compound A], the Ki was 0.66 nM.
For B2, the Ki was 1.95 nM.
Isovaleryl-APEK([Ahx-γGlu-C18 diacid])PEADATPEEIQRYYVSLRHYYNWLTRQRY-NH2 [Compound K] gave a Ki of 1.04 nM.
With B3 the Ki was 0.46 nM.
Work on Isovaleryl-APAK([AEEA-AEEA-γGlu-C18 diacid])PEEDASPEEIQRYYVSLRHYYNWLTRQRY-NH2 [Compound E] yielded a Ki of 0.55 nM.
For B4, the Ki was 0.31 nM.
In the case of B5, the Ki is reported as 0.74 nM.
Work on Isovaleryl-APEK([AEEA-AEEA-γGlu-C18 diacid])PEADASPEEIQRYYVSLRHYYNWLTRQRY-NH2 [Compound J] yielded a Ki of 0.24 nM.

Tested on: not listed separately
Test: Effect on acute food intake (AFI) in normal NMRI mice
Type: in vivo
Conditions: male NMRI mice, 10 nmol/kg s.c. once, % vs. vehicle group
Procedure: Effect on Acute Food Intake in Normal NMRI Mice
Male NMRI mice were obtained from Charles River (Charles River, Research Models & Services Germany GmbH) or from JanVier (JanVier Labs, France) at 5 weeks of age. […] Room temperature was controlled to 21° C.±1° C., with 60%±20% humidity.
Animals were transferred 5-7 days before the start of the study to a real-time food intake monitoring system, HM-2 system (MBRose, Denmark), to allow acclimatization to experimental conditions. As the animals were uniquely identified with microchips, each individual animal was identified by its microchip upon entry and exit from the food channel. Randomization of the mice for each study group (n=7-8) was based on body weight measured the day before the start of the study. A vehicle-treated (50 mM phosphate buffer pH7 with 5% Mannitol) group was included in each experiment. Six hours before the start of the night phase animals were fasted. One hour before the dark phase animals were dosed once subcutaneously (10 nmol/kg) with test peptide. […] The food intake of the treated groups was normalized (in %) to the average food intake of the group receiving vehicle (Table 1). Statistical significance was evaluated using One-way analysis of variance with Turkey's multiple comparison test. P<0.05 was considered statistically significant.
In the case of `CC[C@H](C)[C@H](NC(=O)[C@H](CCC(=O)O)NC(=O)[C@H](CCC(=O)O)NC(=O)[C@@H]1CCCN1C(=O)[C@@H](NC(=O)[C@H](C)NC(=O)[C@H](CC(=O)O)NC(=O)[C@H](CCC(=O)O)NC(=O)[C@H](CCC(=O)O)NC(=O)[C@@H]1CCCN1C(=O)[C@H](CCCCNC(=O)COCCOCCNC(=O)COCCOCCNC(=O)CC[C@H](NC(=O)CCCCCCCCCCCCCCCCC(=O)O)C(=O)O)NC(=O)[C@H](CCC(=O)O)NC(=O)[C@@H]1CCCN1C(=O)[C@H](C)NC(=O)CC(C)C)[C@@H](C)O)C(=O)N[C@@H](CCC(N)=O)C(=O)N[C@@H](CCCNC(=N)N)C(=O)N[C@@H](Cc1ccc(O)cc1)C(=O)N[C@@H](Cc1ccc(O)cc1)C(=O)N[C@H](C(=O)N[C@@H](CO)C(=O)N[C@@H](CC(C)C)C(=O)N[C@@H](CCCNC(=N)N)C(=O)N[C@@H](Cc1c[nH]cn1)C(=O)N[C@@H](Cc1ccc(O)cc1)C(=O)N[C@@H](Cc1ccc(O)cc1)C(=O)N[C@@H](CC(N)=O)C(=O)N[C@@H](Cc1c[nH]c2ccccc12)C(=O)N[C@@H](CC(C)C)C(=O)N[C@H](C(=O)N[C@@H](CCCNC(=N)N)C(=O)N[C@@H](CCC(N)=O)C(=O)N[C@@H](CCCNC(=N)N)C(=O)N[C@@H](Cc1ccc(O)cc1)C(N)=O)[C@@H](C)O)C(C)C` [Compound G, N{alpha-4}-(3-methylbutanoyl)-N{epsilon-7}-[2-(2-{2-[2-(2-{2-[(4S)-4-carboxy-4-(17-carboxyheptadecanamido)butanamido]ethoxy}ethoxy)acetamido]ethoxy}ethoxy)acetamido]-[4A,7K,9E,13T,17I,18Q,22V,28Y,30W,31L]hPYY(4-36)], the “AFI 10 nmol/kg 24 h (food intake normalized to vehicle group)” value is reported as 44%.
